# Experimental data from PMC3064162.
# Target: human C3b (human)
# Test: SPR
substance,measurement,value
(R78G)FH1–4^V62 (from UniProt P08603 19-263) (domain or fragment),Kd,> 35 µM
